# In US20230124973:
# T1: hTERT (191-306), purified
# T1 chain: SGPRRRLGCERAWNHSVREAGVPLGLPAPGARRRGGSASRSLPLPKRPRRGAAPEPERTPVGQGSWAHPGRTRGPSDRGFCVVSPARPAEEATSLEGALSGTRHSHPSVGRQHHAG
# B1: IKK2 (2-664) (protein)
# chain: SWSPSLTTQTCGAWEMKERLGTGGFGNVIRWHNQETGEQIAIKQCRQELSPRNRERWCLEIQIMRRLTHPNVVAARDVPEGMQNLAPNDLPLLAMEYCQGGDLRKYLNQFENCCGLREGAILTLLSDIASALRYLHENRIIHRDLKPENIVLQQGEQRLIHKIIDLGYAKELDQGSLCTSFVGTLQYLAPELLEQQKYTVTVDYWSFGTLAFECITGFRPFLPNWQPVQWHSKVRQKSEVDIVVSEDLNGTVKFSSSLPYPNNLNSVLAERLEKWLQLMLMWHPRQRGTDPTYGPNGCFKALDDILNLKLVHILNMVTGTIHTYPVTEDESLQSLKARIQQDTGIPEEDQELLQEAGLALIPDKPATQCISDGKLNEGHTLDMDLVFLFDNSKITYETQISPRPQPESVSCILQEPKRNLAFFQLRKVWGQVWHSIQTLKEDCNRLQQGQRAAMMNLLRNNSCLSKMKNSMASMSQQLKAKLDFFKTSIQIDLEKYSEQTEFGITSDKLLLAWREMEQAVELCGRENEVKLLVERMMALQTDIVDLQRSPMGRKQGGTLDDLEEQARELYRRLREKPRDQRTEGDSQEMVRLLLQAIQSFEKKVRVIYTQLSKTVVCKQKALELLPKVEEVVSLMNEDEKTVVRLQEKRQKELWNLLKIACSK
# Legend:
# [1] = system: hTERT (191-306), purified
# [2] = biological target: T1, hTERT (191-306), purified
Molecule,in vitro kinase assay; phosphorylation site found by mass spectrometry and by Western blotting with Anti-hTERT pT249 [1],in vitro kinase assay (negative control); phosphorylation sites found by mass spectrometry [2]
CDK1-cyclin B (New England Biolabs),pT249 was detected from only a sample treated with CDK1,–
B1,–,"pS206, pS274, pT283 and the like were detected from a sample treated with IKK2"
